Consider eleven molecules from patent US11840574B2, “Anti-DR5 antibody and use thereof” (DONG-A ST CO., LTD., priority 2017, dated 2023).

In the assay the target is Human DR5 (Homo sapiens, UniProt O14763). As to the kind of experiment: Binding affinity of antibody to human DR5 (BIAcore, CM5 chip). The note with it: for Ka(1/Ms) / Ka: association rate, Human DR5, 1:1 Langmuir binding model; for Kd: equilibrium dissociation constant, Human DR5. As for the experimental part: In order to measure affinity, human DR5 was coupled to carboxylated dextran biosensor chips (CM5, GE) according to the manufacturer's instruction. Association and dissociation rates were assessed by injecting IgG proteins that were 2-fold serially diluted to 5 nM, 2.5 nM, 1.25 nM, 0.625 nM, 0.313 nM, and 0.156 nM.
Association and dissociation rates were depicted in association and dissociation sensorgrams and calculated using a simple 1:1 Langmuir binding model (BIAcore X100 Evaluation Software, ver. 2.0). The equilibrium dissociation constants (KD), which is the ratio of dissociation constant (Kd) to association constant (Ka), were confirmed to be in the sub-nanomolar range. Measurements of the binding of antibody D0 and DA1 to DA35 of the present disclosure to DR5 are given in Table 11 below (antibody names are given as the names of the clones from which the antibodies were derived). A representative sensorgram for D0 is depicted in FIG. 1.

B1: DA28: humanized or deimmunized variant of parental clone D0; CDRs SEQ ID NO 1, 2, 7 / 4, 10, 13 (antibody, V domains shown)
VH: AVTLDESGGGLQTPGGGLSLVCKGSGFTFSSFNMLWVRQAPGKGLEWVAGIGKSDRYTGYGSAVKGRATISRDDGQSTARLQLNNLRAEDTGTYYCVKDAGSGCGSGGWTGACIDTWGHGTEVIVSS
VL: LTQPSSVSANLGGTVEITCSGGDSYAGSYYYGWYQQKAPGSAPVTVIYNNNNRPSNIPSRFSGSTSGSTATLTITGVQAEDEAVYFCGSRDSSYVGIFGAGTTLTVL
As to B1, the “Ka(1/Ms)” value is given as 1.16 × 10^06 1/Ms and the Kd was 0.00389 nM.

B2: DA35: humanized or deimmunized variant of parental clone D0; CDRs SEQ ID NO 1, 2, 7 / 4, 10, 13 (antibody, V domains shown)
VH: AVTLDESGGGLQTPGGGLSLVCKGSGFTFSSFNMLWVRQAPGKGLEWVAGIGKSDRYTGYGSAVKGRATISRDDGQSTARLQMNSLRAEDTAVYYCVKDAGSGCGSGGWTGACIDTWGHGTEVIVSS
VL: LTQPSSVSANLGGTVEITCSGGDSYAGSYYYGWYQQKAPGSAPVTVIYNNNNRPSNIPSRFSGSTSGSTATLTITGVQAEDEATYFCGSRDSSYVGIFGAGTTLTVL
Turning to B2, the “Ka(1/Ms)” value is reported as 1.13 × 10^06 1/Ms and the Kd is 0.0801 nM.

B3: DA33: humanized or deimmunized variant of parental clone D0; CDRs SEQ ID NO 1, 2, 7 / 4, 10, 13 (antibody, V domains shown)
VH: AVTLDESGGGLQTPGGGLSLVCKGSGFTFSSFNMLWVRQAPGKGLEWVAGIGKSDRYTGYGSAVKGRATISRDDGQSTARLQLNNLRAEDTAVYYCVKDAGSGCGSGGWTGACIDTWGHGTEVIVSS
VL: LTQPSSVSANLGGTVEITCSGGDSYAGSYYYGWYQQKAPGSAPVTVIYNNNNRPSNIPSRFSGSTSGSTATLTITGVQAEDEATYFCGSRDSSYVGIFGAGTTLTVL
B3: the “Ka(1/Ms)” value was 1.24 × 10^06 1/Ms and binding was put at a Kd of 0.0788 nM.

B4: DA34: humanized or deimmunized variant of parental clone D0; CDRs SEQ ID NO 1, 2, 7 / 4, 10, 13 (antibody, V domains shown)
VH: AVTLDESGGGLQTPGGGLSLVCKGSGFTFSSFNMLWVRQAPGKGLEWVAGIGKSDRYTGYGSAVKGRATISRDDGQSTAYLQMNSLRAEDTAVYYCVKDAGSGCGSGGWTGACIDTWGHGTEVIVSS
VL: LTQPSSVSANLGGTVEITCSGGDSYAGSYYYGWYQQKAPGSAPVTVIYNNNNRPSNIPSRFSGSTSGSTATLTITGVQAEDEATYYCGSRDSSYVGIFGAGTTLTVL
For B4, the “Ka(1/Ms)” value is 1.00 × 10^06 1/Ms and binding was put at a Kd of 0.0942 nM.

B5: DA31: humanized or deimmunized variant of parental clone D0; CDRs SEQ ID NO 1, 2, 7 / 4, 10, 13 (antibody, V domains shown)
VH: AVTLDESGGGLQTPGGGLSLVCKGSGFTFSSFNMLWVRQAPGKGLEWVAGIGKSDRYTGYGSAVKGRATISRDDGQSTARLQMNSLRAEDTGTYYCVKDAGSGCGSGGWTGACIDTWGHGTEVIVSS
VL: LTQPSSVSANLGGTVEITCSGGDSYAGSYYYGWYQQKAPGSAPVTVIYNNNNRPSNIPSRFSGSTSGSTATLTITGVQAEDEATYFCGSRDSSYVGIFGAGTTLTVL
As to B5, the “Ka(1/Ms)” value is listed as 1.24 × 10^06 1/Ms and the Kd is 0.0706 nM.

B6: DA30: humanized or deimmunized variant of parental clone D0; CDRs SEQ ID NO 1, 2, 7 / 4, 10, 13 (antibody, V domains shown)
VH: AVTLDESGGGLQTPGGGLSLVCKGSGFTFSSFNMLWVRQAPGKGLEWVAGIGKSDRYTGYGSAVKGRATISRDDGQSTAYLQMNSLRAEDTGTYYCVKDAGSGCGSGGWTGACIDTWGHGTEVIVSS
VL: LTQPSSVSANLGGTVEITCSGGDSYAGSYYYGWYQQKAPGSAPVTVIYNNNNRPSNIPSRFSGSTSGSTATLTITGVQAEDEATYYCGSRDSSYVGIFGAGTTLTVL
Regarding B6, the “Ka(1/Ms)” value is 1.03 × 10^06 1/Ms and the Kd is 0.0774 nM.

B7: DA32: humanized or deimmunized variant of parental clone D0; CDRs SEQ ID NO 1, 2, 7 / 4, 10, 13 (antibody, V domains shown)
VH: AVTLDESGGGLQTPGGGLSLVCKGSGFTFSSFNMLWVRQAPGKGLEWVAGIGKSDRYTGYGSAVKGRATISRDDGQSTVRLQLNNLRAEDTAVYYCVKDAGSGCGSGGWTGACIDTWGHGTEVIVSS
VL: LTQPSSVSANLGGTVEITCSGGDSYAGSYYYGWYQQKAPGSAPVTVIYNNNNRPSNIPSRFSGSTSGSTATLTITGVQAEDEAVYFCGSRDSSYVGIFGAGTTLTVL
For the molecule B7, the “Ka(1/Ms)” value was 1.14 × 10^06 1/Ms and the affinity, expressed as Kd, was 0.0751 nM.

B8: DA1: humanized or deimmunized variant of parental clone D0; CDRs SEQ ID NO 1, 2, 7 / 4, 10, 13 (antibody, V domains shown)
VH: EVQLVESGGGLVQPGGSLRLSCAASGFTFSSFNMLWVRQAPGKGLEWVAGIGKSDRYTGYGSAVKGRFTISRDDSKSTVYLQMNSLRAEDTAVYYCVRDAGSGCGSGGWTGACIDTWGQGTLVTVSS
VL: DIQMTQSPSSLSASVGDRVTITCSGGDSYAGSYYYGWYQQKPGKAPKTLIYNNNNRPSGVPSRFSGSTSGTDFTLTISSLQPEDFATYYCGSRDSSYVGIFGQGTKVEIK
For B8, the “Ka” value was determined as 4.9e+06 M⁻¹ s⁻¹.

B9: DA4: humanized or deimmunized variant of parental clone D0; CDRs SEQ ID NO 1, 2, 7 / 4, 10, 13 (antibody, V domains shown)
VH: EVQLVESGGGLVQPGGSLRLSCAASGFTFSSFNMLWVRQAPGKGLEWVAGIGKSDRYTGYGSAVKGRFTISRDDSKNTVYLQMNSLRAEDTAVYYCVRDAGSGCGSGGWTGACIDTWGQGTLVTVSS
VL: DIQMTQSPSSLSASVGDRVTITCSGGDSYAGSYYYGWYQQKPGKAPKTLIYNNNNRPSGVPSRFSGSTSGTDFTLTISSLQPEDFATYYCGSRDSSYVGIFGQGTKVEIK
For the molecule B9, the “Ka” value was determined as 1.2e+06 M⁻¹ s⁻¹.

B10: DA2: humanized or deimmunized variant of parental clone D0; CDRs SEQ ID NO 1, 2, 7 / 4, 10, 13 (antibody, V domains shown)
VH: EVQLVESGGGLVQPGGSLRLSCAASGFTFSSFNMLWVRQAPGKGLEWVAGIGKSDRYTGYGSAVKGRFTISRDDSKSTVYLQMNSLRAEDTAVYYCVRDAGSGCGSGGWTGACIDTWGQGTLVTVSS
VL: DIQMTQSPSSLSASVGDRVTITCSGGDSYAGSYYYGWYQQKPGKAPKTLIYNNNNRPSGVPSRFSGSRSGTDFTLTISSLQPEDFATYYCGSRDSSYVGIFGQGTKVEIK
For the molecule B10, the “Ka” value was 1.9e+06 M⁻¹ s⁻¹.

B11: DA3: humanized or deimmunized variant of parental clone D0; CDRs SEQ ID NO 1, 2, 7 / 4, 10, 13 (antibody, V domains shown)
VH: EVQLVESGGGLVQPGGSLRLSCAASGFTFSSFNMLWVRQAPGKGLEWVAGIGKSDRYTGYGSAVKGRFTISRDTSKSTVYLQMNSLRAEDTAVYYCVRDAGSGCGSGGWTGACIDTWGQGTLVTVSS
VL: DIQMTQSPSSLSASVGDRVTITCSGGDSYAGSYYYGWYQQKPGKAPKTLIYNNNNRPSGVPSRFSGSTSGTDFTLTISSLQPEDFATYYCGSRDSSYVGIFGQGTKVEIK
As to B11, the “Ka” value stood at 4.9e+06 M⁻¹ s⁻¹.
